Substrate: CC(=NO)C(=O)O
Experiment: nitrite production by diazo-coupling, Hanes-Woolf plot
Format: biochemical, Alcaligenes faecalis
Settings: Fe(II)-reconstituted enzyme, 10 mM Tris-HCl pH 8.0, 1 mM sodium ascorbate, 100 μM FeSO4, 37 °C, co-substrate O2, kcat apparent, per subunit

B1: rPOD (recombinant pyruvic oxime dioxygenase) (Alcaligenes faecalis) (protein)
chain: MDTPLRDKSYFDERATKEMATHLQQVQRDTRETMAFACRILAMTEQEAGLAGQISVRSERPGAYWTLRFGLGFDEATPEDFIEVDRDLNTLSGEGMANPATRFHLWVYEARPDVNSIIHTHSPWATVLATARQPLVISQMDMTPLHNDCAFLGEWPGVPIADQEGVIISKALGDKRAIILAHHGYLTAGKSCQEATYLSVYLERAARLQVRAQAAFGPLTPVDDTLAAEAHDYLLKPSIVNATFDYWSRQTQGIAPLTKTR
notes: full length, 261 residues, 29,106 Da; pET21a(+) NdeI/XhoI with own stop codon, untagged; expressed in E. coli BL21(DE3)-CodonPlus; homotetramer (135 kDa by gel filtration); Fe(II)-reconstituted
Work on B1 yielded a Km of 470 µM and a kcat of 4.69 s⁻¹.
